± gives the standard error. This sample holds only a part of the variants without activity.
B1: glmS ribozyme (parent)
chain: AUAAAAGCGCCAGAACUACAGAAAUGUAGUUGACGAGGAGGAGGUUUAUCGAAUUUUCGGCGGAUGCCUCCAAA

Experiments:
Settings in all cases: with glucosamine-6-phosphate
glucosamine-6-phosphate [1] = variants of: B1; assay: self-cleavage kobs at 40 uM GlcN6P; higher = faster cleavage; RNA array
Outline: (§1)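 A hybridised Cy3 probe tracked barcoded ribozyme variants, transcribed in situ by E. coli RNA polymerase on sequenced MiSeq chips, at 37 °C. The variants received 40 μM to 10 mM glucosamine-6-phosphate in HEPES/KCl/Mg(OAc)2 buffer. kobs came from decay fits and kcat and KM from weighted Michaelis–Menten fits.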

glucosamine-6-phosphate [2] = variants of: B1; assay: self-cleavage kobs at 160 uM GlcN6P; higher = faster cleavage; RNA array
Outline: as §1

glucosamine-6-phosphate [3] = variants of: B1; assay: self-cleavage kobs at 640 uM GlcN6P; higher = faster cleavage; RNA array
Outline: as §1

glucosamine-6-phosphate [4] = variants of: B1; assay: self-cleavage kobs at 2500 uM GlcN6P; higher = faster cleavage; RNA array
Outline: as §1

glucosamine-6-phosphate [5] = variants of: B1; assay: self-cleavage kobs at 10000 uM GlcN6P; higher = faster cleavage; RNA array
Outline: as §1

| Variant | self-cleavage kobs at 40 uM GlcN6P (glucosamine-6-phosphate [1]) [s⁻¹] | self-cleavage kobs at 160 uM GlcN6P (glucosamine-6-phosphate [2]) [s⁻¹] | self-cleavage kobs at 640 uM GlcN6P (glucosamine-6-phosphate [3]) [s⁻¹] | self-cleavage kobs at 2500 uM GlcN6P (glucosamine-6-phosphate [4]) [s⁻¹] | self-cleavage kobs at 10000 uM GlcN6P (glucosamine-6-phosphate [5]) [s⁻¹] |
| --- | --- | --- | --- | --- | --- |
| G44A A48U | < 1e-05 | < 1e-05 | < 1e-05 |  |  |
| G29C C70U | 8.66e-05 ± 9.8e-06 | 0.000143 ± 1.8e-05 | 0.000243 ± 2.2e-05 | 0.00103 ± 0.00018 | 0.000815 ± 0.00013 |
| C16U G40A G62A U69A | < 1e-05 |  |  |  |  |
| G32U G35U | < 1e-05 | < 1e-05 | < 1e-05 | < 1e-05 | < 1e-05 |
| G29A U56A G63C | < 1e-05 |  |  |  |  |
| A33U A42U C61U | < 1e-05 |  |  |  |  |
| C8A C34G | < 1e-05 | < 1e-05 | < 1e-05 | < 1e-05 | < 1e-05 |
| G9U C50U C70U | < 1e-05 |  |  |  |  |
| C8A G29U G60U | < 1e-05 |  |  |  | < 1e-05 |
| G60U C67G | < 1e-05 | < 1e-05 | < 1e-05 | < 1e-05 | < 1e-05 |
| G7A A36U | < 1e-05 | < 1e-05 | < 1e-05 | < 1e-05 |  |
| C10U G29C G35A G44U C50A U55C A64U | < 1e-05 |  |  |  | < 1e-05 |
| G7A A39C A52U G60A C67U | < 1e-05 |  |  |  |  |
| G38C A39U G60U | < 1e-05 |  |  | < 1e-05 | < 1e-05 |
| G9A U31G A39G A48C G60C | < 1e-05 |  |  |  |  |
| A52G G63C | < 1e-05 |  |  |  |  |
| C16U U30G G32A U57A C61U | < 1e-05 |  |  | < 1e-05 |  |
| A6G C50G | 0.000151 ± 3.1e-05 | 9.76e-05 ± 3.1e-05 | 0.000503 ± 0.00012 | 0.000106 ± 3.4e-05 | 3.84e-05 ± 1.3e-05 |
| A14U U30C C61U C68A | < 1e-05 |  |  |  |  |
| G37A A53G G60U C61U G63A | < 1e-05 |  |  |  |  |
| G13A C16U G37U C67U | < 1e-05 |  |  |  |  |
| A42G G43U C70U | < 1e-05 |  |  |  | < 1e-05 |
| C34A A36G A39C | < 1e-05 |  |  | < 1e-05 | < 1e-05 |
| A39G U65G C67G | 0.000107 ± 2.4e-05 |  |  |  | 0.00497 ± 0.0012 |
| C10U G13C G40A | < 1e-05 | < 1e-05 |  |  |  |
| C16G G40U C58G | < 1e-05 |  |  | < 1e-05 |  |

| Variant | self-cleavage kobs at 40 uM GlcN6P (glucosamine-6-phosphate [1]) [s⁻¹] | self-cleavage kobs at 160 uM GlcN6P (glucosamine-6-phosphate [2]) [s⁻¹] | self-cleavage kobs at 640 uM GlcN6P (glucosamine-6-phosphate [3]) [s⁻¹] | self-cleavage kobs at 2500 uM GlcN6P (glucosamine-6-phosphate [4]) [s⁻¹] | self-cleavage kobs at 10000 uM GlcN6P (glucosamine-6-phosphate [5]) [s⁻¹] |
| --- | --- | --- | --- | --- | --- |
| A12C C58U G63U | < 1e-05 |  |  |  | < 1e-05 |
| U46A G51C | < 1e-05 |  | < 1e-05 | < 1e-05 | < 1e-05 |
| G9U C11A G59A A64U | < 1e-05 |  |  |  |  |
| C10U C34G G41U A52U C58A G66A C71A | < 1e-05 |  |  |  |  |
| U31A C61U | < 1e-05 | < 1e-05 | < 1e-05 |  |  |
| G44C G59C | < 1e-05 |  | < 1e-05 | < 1e-05 | < 1e-05 |
| A33U A53U A64U | < 1e-05 |  |  |  | < 1e-05 |
| A52G A53C | < 1e-05 |  |  |  |  |
| C34A G62C | < 1e-05 | < 1e-05 | < 1e-05 | < 1e-05 | < 1e-05 |
| U45A U55C | 0.000654 ± 0.00021 |  | 0.00526 ± 0.0015 | 0.00714 ± 0.0029 | 0.024 ± 0.0085 |
| A12U U45G U46A | 0.000262 ± 8.5e-05 |  |  | 0.00886 ± 0.0031 |  |
| A15C G37A U57G C67G | < 1e-05 |  |  |  | < 1e-05 |
| C58G G60C | < 1e-05 | < 1e-05 | < 1e-05 | < 1e-05 | < 1e-05 |
| C19A A33G A36G G40A A42G G62U G63A C71A | < 1e-05 |  |  | < 1e-05 |  |
| U47G G62A | < 1e-05 |  | < 1e-05 |  |  |
| U46G G63C | < 1e-05 | < 1e-05 | < 1e-05 | < 1e-05 | < 1e-05 |
| A12C U45A C58G C67G | < 1e-05 |  |  |  |  |
| G60C C67A C71U | < 1e-05 |  |  |  |  |
| U45C C67A C70G | < 1e-05 |  |  | < 1e-05 |  |
| U31G G63A | < 1e-05 | < 1e-05 | < 1e-05 | < 1e-05 | < 1e-05 |
| G32U A52G C58A C70A | 5.29e-05 ± 2.5e-05 |  |  |  | 4.31e-05 ± 2e-05 |
| G9A A39C | < 1e-05 | < 1e-05 |  | < 1e-05 |  |
| A6G G9A G44A C71A | < 1e-05 |  |  | < 1e-05 | < 1e-05 |
| A42C G63A C67G | < 1e-05 |  |  |  |  |
| A36U G43U C50U | < 1e-05 |  |  |  |  |
| A6G A15U C16G A53G C61G G63A | < 1e-05 | < 1e-05 | < 1e-05 | < 1e-05 |  |
